The target of test [1] is citrullinated histone H2A and H4 present in pre-NETs (A23187-stimulated human neutrophils) (human) (UniProt P0C0S8). The experiment in a line: flow cytometry on fixed and permeabilized leukocytes of A23187-stimulated whole blood; detection with goat-anti-human IgG-Alexa Fluor 488. (In flow cytometry, cells or beads pass a laser one at a time.)
For test [2] the target is unchanged. Nature of the test: cell-based or functional assay.
Test [3] shares this target. Nature of the test: flow cytometry on fixed and permeabilized leukocytes of A23187-stimulated whole blood; detection with goat-anti-human IgG-Alexa Fluor 488; negative control, same value as without antibody.

In the case of CIT-013 (antibody), the % pre-NETs (FITC+ of CD66b+ leukocytes, indicating antibody binding) in test [1] was determined as 15%. For the same substance, in test [2], the NET-inhibitory effect compared to No Ab at 210 min (live imaging fluorescence microscopy, A23187-stimulated neutrophils) amounted to 66% and the NETs after 210 min (percentage of neutrophils at t=0) was determined as 8%.
On to isotype control antibody, for which the % pre-NETs (FITC+ of CD66b+ leukocytes, indicating antibody binding) in test [3] is 5%.
